{"source": "the RNAGym collection of RNA variant scans (doi:10.7554/elife.80360)", "parents": {"B1": {"name": "CPEB3 Ribozyme (parent)", "chain": "GGGGGCCACAGCAGAAGCGUUCACGUCGCGGCCCCUGUCAGAUUCUGGUGAAUCUGCGAAUUCUGCUGU"}}}
{"variants_of": "B1", "assay": "self-cleavage, relative activity (ratio to wild type); higher = more cleavage; co-transcriptional"}
{"variant": "A13G U55A", "self-cleavage": 0.722}
{"variant": "G14U C27G", "self-cleavage": 0.154}
{"variant": "G14U C27A", "self-cleavage": 0.172}
{"variant": "G14C G47C", "self-cleavage": 0.794}
{"variant": "G14A G41C", "self-cleavage": 0.179}
{"variant": "G14A G41U", "self-cleavage": 0.264}
{"variant": "G14A U21A", "self-cleavage": 0.646}
{"variant": "G14A U21C", "self-cleavage": 0.413}
{"variant": "G14A U21G", "self-cleavage": 0.121}
{"variant": "A13G U43A", "self-cleavage": 0.617}
{"variant": "A13G C33U", "self-cleavage": 0.946}
{"variant": "A13G C33A", "self-cleavage": 0.942}
{"variant": "G14U A59C", "self-cleavage": 0.309}
{"variant": "G14U A59G", "self-cleavage": 0.753}
{"variant": "G14A G17C", "self-cleavage": 0.175}
{"variant": "G14A G17A", "self-cleavage": 0.134}
{"variant": "G14A C27G", "self-cleavage": 0.116}
{"variant": "A13U A23C", "self-cleavage": 0.793}
{"variant": "G14U U44A", "self-cleavage": 0.553}
{"variant": "G14U U44G", "self-cleavage": 0.566}
{"variant": "G14A U38G", "self-cleavage": 0.152}
{"variant": "G14A U38C", "self-cleavage": 0.501}
{"variant": "A13G A15U", "self-cleavage": 0.547}
{"variant": "G14C U43A", "self-cleavage": 0.204}
{"variant": "G14C U43C", "self-cleavage": 0.399}
{"variant": "G14A U55A", "self-cleavage": 0.289}
{"variant": "G14A C57U", "self-cleavage": 0.229}
{"variant": "A13C U55G", "self-cleavage": 0.322}
{"variant": "A13C U55A", "self-cleavage": 0.315}
{"variant": "A15C A59G", "self-cleavage": 0.798}
{"variant": "A15C A59U", "self-cleavage": 0.353}
{"variant": "G14U C39A", "self-cleavage": 0.223}
{"variant": "G14U A60C", "self-cleavage": 0.269}
{"variant": "G14U A60U", "self-cleavage": 0.331}
{"variant": "A15C A51U", "self-cleavage": 0.826}
{"variant": "A15C A51G", "self-cleavage": 0.897}
{"variant": "G14A A52G", "self-cleavage": 0.805}
{"variant": "A13C G68U", "self-cleavage": 0.892}
{"variant": "G14U A15U", "self-cleavage": 0.358}
{"variant": "G14U A15C", "self-cleavage": 0.415}
{"variant": "A13U G17C", "self-cleavage": 0.116}
{"variant": "A13C G37C", "self-cleavage": 0.156}
{"variant": "A13U C54G", "self-cleavage": 0.419}
{"variant": "G14U C24A", "self-cleavage": 0.249}
{"variant": "G14U G37A", "self-cleavage": 0.197}
{"variant": "G14U A16G", "self-cleavage": 0.504}
{"variant": "A13U U62C", "self-cleavage": 0.278}
{"variant": "A13U U62G", "self-cleavage": 0.299}
{"variant": "A13U C24G", "self-cleavage": 0.127}
{"variant": "A13U G41U", "self-cleavage": 0.333}
{"variant": "A13C C32U", "self-cleavage": 0.89}
{"variant": "A13C C32G", "self-cleavage": 0.192}
{"variant": "G14U G41U", "self-cleavage": 0.276}
{"variant": "G14U G41A", "self-cleavage": 0.206}
{"variant": "A13C G17U", "self-cleavage": 0.125}
{"variant": "A13G U26A", "self-cleavage": 0.767}
{"variant": "A13U U26G", "self-cleavage": 0.287}
{"variant": "A13U U26C", "self-cleavage": 0.422}
{"variant": "A13U U26A", "self-cleavage": 0.626}
{"variant": "A13U U20A", "self-cleavage": 0.0602}
{"variant": "G14U U26C", "self-cleavage": 0.478}
{"variant": "G14U U61A", "self-cleavage": 0.461}
{"variant": "A13U G37A", "self-cleavage": 0.184}
{"variant": "G14A U36G", "self-cleavage": 0.134}
{"variant": "A13G G48C", "self-cleavage": 0.971}
{"variant": "A13U G28U", "self-cleavage": 0.165}
{"variant": "G14C U20G", "self-cleavage": 0.151}
{"variant": "A13U G48A", "self-cleavage": 0.911}
{"variant": "G14C C66G", "self-cleavage": 0.447}
{"variant": "G14U", "self-cleavage": 0.855}
{"variant": "G14C", "self-cleavage": 0.689}
{"variant": "G14A", "self-cleavage": 0.832}
{"variant": "A13G A40C", "self-cleavage": 0.306}
{"variant": "A13C C45U", "self-cleavage": 0.876}
{"variant": "A13G U46C", "self-cleavage": 0.927}
{"variant": "G14C A52U", "self-cleavage": 0.562}
{"variant": "G14C A52C", "self-cleavage": 0.459}
{"variant": "A13G U44A", "self-cleavage": 0.877}
{"variant": "A13G U44C", "self-cleavage": 0.824}
{"variant": "G14U G48U", "self-cleavage": 0.855}
{"variant": "G14U G48C", "self-cleavage": 0.907}
{"variant": "A13G G31C", "self-cleavage": 0.241}
{"variant": "G14C C57G", "self-cleavage": 0.203}
{"variant": "A13U U49G", "self-cleavage": 0.901}
{"variant": "A13U U49A", "self-cleavage": 0.91}
{"variant": "A13U G31A", "self-cleavage": 0.623}
{"variant": "G14A A23U", "self-cleavage": 0.875}
{"variant": "G14A U61G", "self-cleavage": 0.414}
{"variant": "G14A U61C", "self-cleavage": 0.246}
{"variant": "G14A U46A", "self-cleavage": 0.85}
{"variant": "G14C C18U", "self-cleavage": 0.155}
{"variant": "G14C C18A", "self-cleavage": 0.149}
{"variant": "G14C A60U", "self-cleavage": 0.249}
{"variant": "G14C A60C", "self-cleavage": 0.21}
{"variant": "A15C C24G", "self-cleavage": 0.269}
{"variant": "G14A G68A", "self-cleavage": 0.866}
{"variant": "G14A G68U", "self-cleavage": 0.765}
{"variant": "A13G C18U", "self-cleavage": 0.382}
{"variant": "A13C G65U", "self-cleavage": 0.41}
{"variant": "G14C C32U", "self-cleavage": 0.716}
{"variant": "G14C U55G", "self-cleavage": 0.185}
{"variant": "G14A U49A", "self-cleavage": 0.742}
{"variant": "G14A U49G", "self-cleavage": 0.842}
{"variant": "A13G C24G", "self-cleavage": 0.368}
{"variant": "G14C U61C", "self-cleavage": 0.241}
{"variant": "A13G C27A", "self-cleavage": 0.425}
{"variant": "A13G C27G", "self-cleavage": 0.137}
{"variant": "A13G G28A", "self-cleavage": 0.139}
{"variant": "G14A C24G", "self-cleavage": 0.148}
{"variant": "A13G A16G", "self-cleavage": 0.855}
{"variant": "A13G A16U", "self-cleavage": 0.714}
{"variant": "A13G A16C", "self-cleavage": 0.175}
{"variant": "A15C A52U", "self-cleavage": 0.816}
{"variant": "A15C A52C", "self-cleavage": 0.748}
{"variant": "A13G G65A", "self-cleavage": 0.653}
{"variant": "A13G G65C", "self-cleavage": 0.345}
{"variant": "G14U U43A", "self-cleavage": 0.321}
{"variant": "G14U G17C", "self-cleavage": 0.128}
{"variant": "G14U U69G", "self-cleavage": 0.94}
{"variant": "G14U U69C", "self-cleavage": 1.03}
{"variant": "G14U U69A", "self-cleavage": 0.923}
{"variant": "G14A C35G", "self-cleavage": 0.236}
{"variant": "G14A C35A", "self-cleavage": 0.202}
{"variant": "G14U G19C", "self-cleavage": 0.15}
{"variant": "G14U G19U", "self-cleavage": 0.17}
{"variant": "A13G C29U", "self-cleavage": 0.133}
{"variant": "A13U G14C", "self-cleavage": 0.351}
{"variant": "G14C A40U", "self-cleavage": 0.199}
{"variant": "A13G U36G", "self-cleavage": 0.227}
{"variant": "A13C U62A", "self-cleavage": 0.348}
{"variant": "A13C U62C", "self-cleavage": 0.475}
{"variant": "A13U U43G", "self-cleavage": 0.221}
{"variant": "G14A U64A", "self-cleavage": 0.444}
{"variant": "G14U U36G", "self-cleavage": 0.142}
{"variant": "G14U U36C", "self-cleavage": 0.535}
{"variant": "A13C C39G", "self-cleavage": 0.538}
{"variant": "A13C C39A", "self-cleavage": 0.372}
{"variant": "A13U G47C", "self-cleavage": 0.877}
{"variant": "A13C U43C", "self-cleavage": 0.685}
{"variant": "G14U U46G", "self-cleavage": 0.871}
{"variant": "A13U A42C", "self-cleavage": 0.586}
{"variant": "A13U U55C", "self-cleavage": 0.403}
{"variant": "G14C U26A", "self-cleavage": 0.346}
{"variant": "A13U C34U", "self-cleavage": 0.917}
{"variant": "A13U U36C", "self-cleavage": 0.647}
{"variant": "A13G C54U", "self-cleavage": 0.937}
{"variant": "A13C U67A", "self-cleavage": 0.783}
{"variant": "A13C U67C", "self-cleavage": 0.706}
{"variant": "G14C C63G", "self-cleavage": 0.971}
{"variant": "A13G C35A", "self-cleavage": 0.167}
{"variant": "A13G C35U", "self-cleavage": 0.952}
{"variant": "G14C U53C", "self-cleavage": 0.19}
{"variant": "G14C U53A", "self-cleavage": 0.326}
{"variant": "A13G A23G", "self-cleavage": 0.804}
{"variant": "A13G A23U", "self-cleavage": 0.997}
{"variant": "G14A C34U", "self-cleavage": 0.751}
{"variant": "G14U U55A", "self-cleavage": 0.325}
{"variant": "A13U C27U", "self-cleavage": 0.134}
{"variant": "A13U C27G", "self-cleavage": 0.155}
{"variant": "G14A U53A", "self-cleavage": 0.362}
{"variant": "G14A U53G", "self-cleavage": 0.344}
{"variant": "G14A A59C", "self-cleavage": 0.343}
{"variant": "G14A A15G", "self-cleavage": 0.823}
{"variant": "G14A A15U", "self-cleavage": 0.424}
{"variant": "A13U U44A", "self-cleavage": 0.659}
{"variant": "A13U C35A", "self-cleavage": 0.197}
{"variant": "A13U C35U", "self-cleavage": 0.826}
